Experiment [1] addresses T1, MBP-PABPN1-HA-(His)6 (mouse).
T1 sequence (Q8CCS6 whole entry, looked up): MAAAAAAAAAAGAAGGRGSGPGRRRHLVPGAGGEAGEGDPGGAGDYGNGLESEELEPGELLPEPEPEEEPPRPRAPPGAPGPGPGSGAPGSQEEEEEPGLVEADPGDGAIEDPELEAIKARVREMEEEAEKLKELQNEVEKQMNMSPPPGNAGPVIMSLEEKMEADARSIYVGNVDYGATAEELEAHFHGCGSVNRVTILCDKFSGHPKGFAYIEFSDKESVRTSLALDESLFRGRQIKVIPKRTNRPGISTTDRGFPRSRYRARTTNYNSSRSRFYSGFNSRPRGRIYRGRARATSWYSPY
The experiment can be described thus: pull-down; MBP-PABPN1 immobilised on amylose resin and incubated with (His)6-PAP-myc and GST-TTP together; blots with anti-GST and anti-myc quantitated; oligo(A)12 added to some samples.

Experiment [2] has as its target (His)6-PABPN1 (mouse) (UniProt O35445).
In experiment [3] the target is T2, hexahistidine-PAP-myc (UniProt Q61183-1 1-739).
T2 construct: poly(A) polymerase (PAP), NM_011112, in a pQE expression vector; also called (His)6-PAP-myc; poly(A) polymerase; source: bacterially expressed (E. coli STBL2 or Rosetta(DE3)pLacI), purified; not shown: His6, N-terminal, kept; myc, C-terminal, kept
Briefly: co-IP; 0.5 µg bacterially expressed GST-TTP construct and 0.5 µg (His)6-PAP-myc with anti-myc agarose in 10 mM Tris pH 7.0, 0.15 M NaCl, 1 mM MgCl2, 0.7 mM ZnCl2, 0.1% NP-40, 4°C overnight; blots with anti-myc and anti-GST. The note with it: both partners purified.

Substitutions are numbered along the chain they refer to. In names and notes the source's numbering stands.

T2 sequence (Q61183 whole entry): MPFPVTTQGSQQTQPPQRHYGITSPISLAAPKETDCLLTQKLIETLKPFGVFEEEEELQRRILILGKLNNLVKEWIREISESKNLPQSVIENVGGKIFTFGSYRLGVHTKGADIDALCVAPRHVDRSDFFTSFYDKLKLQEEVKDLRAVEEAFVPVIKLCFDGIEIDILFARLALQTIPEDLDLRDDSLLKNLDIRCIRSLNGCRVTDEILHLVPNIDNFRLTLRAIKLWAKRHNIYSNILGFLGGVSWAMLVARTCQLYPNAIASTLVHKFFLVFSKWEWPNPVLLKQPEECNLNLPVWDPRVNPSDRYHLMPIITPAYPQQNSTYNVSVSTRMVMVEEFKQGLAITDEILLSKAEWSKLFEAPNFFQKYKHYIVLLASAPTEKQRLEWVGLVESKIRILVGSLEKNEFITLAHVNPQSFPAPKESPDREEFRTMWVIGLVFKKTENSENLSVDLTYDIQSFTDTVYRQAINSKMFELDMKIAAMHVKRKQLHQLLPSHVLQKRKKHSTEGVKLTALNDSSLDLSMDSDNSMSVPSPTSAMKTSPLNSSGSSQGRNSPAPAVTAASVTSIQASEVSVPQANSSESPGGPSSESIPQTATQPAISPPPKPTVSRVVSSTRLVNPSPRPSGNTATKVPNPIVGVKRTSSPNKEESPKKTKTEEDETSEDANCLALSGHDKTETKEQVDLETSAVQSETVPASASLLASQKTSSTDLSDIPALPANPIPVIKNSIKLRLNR

Take “hexahistidine-PAP-myc (from UniProt Q61183-1 1-739) (enzyme)”: the fold change of PAP pulled down with GST-TTP present, against PAP alone in experiment [1] worked out at 4 fold.

B1: N-terminally glutathione S-transferase-tagged wild-type TTP (natural protein, mouse, UniProt P22893 2-319, looked up)
chain: DLSAIYESLQSMSHDLSSDHGGTESLGGLWNINSDSIPSGVTSRLTGRSTSLVEGRSCGWVPPPPGFAPLAPRPGPELSPSPTSPTATPTTSSRYKTELCRTYSESGRCRYGAKCQFAHGLGELRQANRHPKYKTELCHKFYLQGRCPYGSRCHFIHNPTEDLALPGQPHVLRQSISFSGLPSGRRSSPPPPGFSGPSLSSCSFSPSSSPPPPGDLPLSPSAFSAAPGTPVTRRDPNQACCPSCRRSTTPSTIWGPLGGLARSPSAHSLGSDPDDYASSGSSLGGSDSPVFEAGVFGPPQTPAPPRRLPIFNRISVSE
notes: also called WT GST-TTP; GST-TTP; source: E. coli STBL2 or Rosetta(DE3)pLacI, purified (glutathione-agarose); not shown: GST, N-terminal, kept
Consider B1, for which, in experiment [2], the in vitro polyadenylation of TNFα-ARE A20 RNA by (His)6-PAP-myc with (His)6-PABPN1: reduction of the processive addition of adenosines by GST-TTP at 2 and 5 min amounted to 45%. Further, the amount of TTP pulled down with (His)6-PAP-myc present, against TTP alone in experiment [1] is 80%. For the same molecule, the binding result in experiment [3] is listed as “binds”.

B2: GST-TTP@2-319(F118N) (natural protein, mouse, UniProt P22893 2-319, looked up)
chain: B1 chain with F117N
notes: source: E. coli STBL2 or Rosetta(DE3)pLacI, purified (glutathione-agarose); not shown: GST, N-terminal, kept
For the molecule B2, in experiment [3], the binding result is given as “binds”.

B3: GST-TTPΔ95–158 (natural protein, mouse, UniProt P22893 2-319, looked up)
chain: DLSAIYESLQSMSHDLSSDHGGTESLGGLWNINSDSIPSGVTSRLTGRSTSLVEGRSCGWVPPPPGFAPLAPRPGPELSPSPTSPTATPTTSSNPTEDLALPGQPHVLRQSISFSGLPSGRRSSPPPPGFSGPSLSSCSFSPSSSPPPPGDLPLSPSAFSAAPGTPVTRRDPNQACCPSCRRSTTPSTIWGPLGGLARSPSAHSLGSDPDDYASSGSSLGGSDSPVFEAGVFGPPQTPAPPRRLPIFNRISVSE
notes: also called TZF domain-deleted TTP mutant; source: E. coli STBL2 or Rosetta(DE3)pLacI, purified (glutathione-agarose); not shown: GST, N-terminal, kept
For the molecule B3, in experiment [3], the binding result is “binds”.

B4: GST-TTP@95-158 (domain or fragment, mouse, UniProt P22893 95-158, looked up)
chain: RYKTELCRTYSESGRCRYGAKCQFAHGLGELRQANRHPKYKTELCHKFYLQGRCPYGSRCHFIH
notes: also called TZF construct; TZF domain; source: E. coli STBL2 or Rosetta(DE3)pLacI, purified (glutathione-agarose); not shown: GST, N-terminal, kept
B4: the binding result in experiment [3] is reported as “binds”.

B5: GST-TTP@95-158(F118N) (domain or fragment, mouse, UniProt P22893 95-158, looked up)
chain: B4 chain with F24N
notes: as for B2
Regarding B5, the binding result in experiment [3] is “binds”.

B6: GST-TTP@2-186 (domain or fragment, mouse, UniProt P22893 2-186, looked up)
chain: DLSAIYESLQSMSHDLSSDHGGTESLGGLWNINSDSIPSGVTSRLTGRSTSLVEGRSCGWVPPPPGFAPLAPRPGPELSPSPTSPTATPTTSSRYKTELCRTYSESGRCRYGAKCQFAHGLGELRQANRHPKYKTELCHKFYLQGRCPYGSRCHFIHNPTEDLALPGQPHVLRQSISFSGLPSGR
notes: as for B2
Turning to B6, the binding result in experiment [3] was “binds”.

Source of the values: paper PMC3406032, “Tristetraprolin Inhibits Poly(A)-Tail Synthesis in Nuclear mRNA that Contains AU-Rich Elements by Interacting with Poly(A)-Binding Protein Nuclear 1” (PLoS ONE, 2012).
